Data on 17 sequences can be found in the supplement of paper PMC9170038.

This data set has as its system MS2 coat protein. The data set is described as follows: apparent KD of MS2 coat protein; higher = weaker reporter binding. As to conditions: Eterna round: R107. The method in brief: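 Designed RNA switches were transcribed on-chip from Illumina sequencing clusters. They were then titrated with SNAP-549-labelled MS2 coat protein (twofold steps, 0.7 or 1.5 nM to 3 µM; 0.8–1.5 h to 10–20 min per step) in 100 mM Tris-HCl pH 7.5, 80 mM KCl, 4 mM MgCl2, without or with constant ligand. Apparent KD is the per-design median of normalised cluster binding-curve fits.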

Setting [1] is: input ligand: theophylline 20 uM.
Setting [2] is: input ligand: theophylline 2 mM.
[3] abbreviates: input ligand: tryptophan 2.4 mM.

As to “CUACAUUUGUAGAAACCGGUCAACAAUAAUCGAGGACCGGUACGGCCGCCACUCGUAUAAUUUAUUACAUGAGGAUCACCCAUGU [Tryptophan A 2]”, the “apparent KD of MS2 coat protein” value came to 13.6 nM (input ligand: arginine 13.2 mM), 16.7 nM under setting [1] and 15.4 nM under setting [2].

With “GCUACAUGAGGAUCACCCAUGUGUACUGAAGGAGCGGCGGAAACGCCAGGUAGGUCGCAGUAUGUGGCUCUGGGCACGAGAAAGC [SSAA NP+V+V2 #2]”, the “apparent KD of MS2 coat protein” value (input ligand: arginine 13.2 mM) came out at 36.6 nM; the “apparent KD of MS2 coat protein” value (input ligand: none) came out at 25.3 nM; the “apparent KD of MS2 coat protein” value under setting [1] worked out at 28.3 nM; the “apparent KD of MS2 coat protein” value under setting [2] was determined as 72.9 nM; the “apparent KD of MS2 coat protein” value under setting [3] stood at 34.3 nM.

For the sequence “CACAGUGCGAAUUUGAAAUCGCACGAUCCUCGAGGACCGGUACGGCCGCCACUCGCGCGGGUCGUACAUGAGGAUCACCCAUGUC [Beertele]”, the “apparent KD of MS2 coat protein” value reads like this: (input ligand: arginine 13.2 mM) 44 nM; under setting [1], 600 nM; under setting [2], 907 nM.

As for “AGCUCGCAUCCUCUAGCGUCAAAGACGCGUCGAGGACCGGUACGGCCGCCACUCGACGUGAGGAUCACCCACGUCUAAGCGAGCA [TrypAX 10 #SwitchBubble #AlternativeMS2 #MS2Late #CuTurnoff]”, the “apparent KD of MS2 coat protein” value was 19.7 nM (input ligand: arginine 13.2 mM); 25.5 nM (input ligand: none); 31.7 nM under setting [1]; 30.6 nM under setting [2]; 295 nM under setting [3].

“ACGUCACGUUUACUCGUGGUUUCGAUCGAUACCAGUAGCGAGAGUUACCCUUGGCAGCGACAUGAGGAUCACCCAUGUACGAAGA [XTheo A #25]”: the “apparent KD of MS2 coat protein” value reads like this: (input ligand: arginine 13.2 mM) 10.8 nM; under setting [1], 14.5 nM; under setting [3], 12 nM.

In the case of “AGCGACAUGCGUGAUACCAGCUACAUGAGGAUCACCCAUGUCAGCAGGGAACUGCUGUGUAGCCCUUGGCAGCACAGUGCAUGUC [Exclusion - Theophylline B (Freestyle 29)]”, the “apparent KD of MS2 coat protein” value runs as follows: (input ligand: arginine 13.2 mM) 13 nM; (input ligand: none) 10.8 nM; under setting [1], 12.3 nM; under setting [2], 23.1 nM; under setting [3], 10.2 nM.

For the sequence “UUCUGGUCCCGUGAUACCAGAGACAUGAGGAUCACCCAUGUACAUGAGGAUCACCCAUGUUUCCCUUGGCAGCACUGUAGGGAGC [Exclusion Theophylline B GF 16]”, the “apparent KD of MS2 coat protein” value (input ligand: arginine 13.2 mM) came to 79.9 nM, the “apparent KD of MS2 coat protein” value under setting [1] was found to be 226 nM and the “apparent KD of MS2 coat protein” value under setting [3] is 207 nM.

Take “GUCCUCGUGUCCGGUUUAGCGCAAAGCGCACGAGGACCGGUACGGCCGCCACUCGAAACAUGAGGAUCACCCAUGUGAAGAAUAA [Design 1]”: the “apparent KD of MS2 coat protein” value amounted to 14.4 nM (input ligand: arginine 13.2 mM); 14.6 nM (input ligand: none); 21.8 nM under setting [1]; 15.8 nM under setting [2]; 17.8 nM under setting [3].

Regarding “GCGAUGGAGCGAAGGAGCGUGCUGGUACAUGAGGAUCACCCAUGUGAGUCGCAGCGCUAAGCACAGGUAGGUCGCGCUCCAUCGC [EAB NP+V+V2 #11]”, the “apparent KD of MS2 coat protein” value by setting is: (input ligand: arginine 13.2 mM) 49.1 nM; (input ligand: none) 28 nM; under setting [1], 35.3 nM; under setting [2], 34.5 nM; under setting [3], 34.2 nM.

For the sequence “UGUGUUGUCCGAAGGAGCGGGACCUAAUAGUGGUAACAUGAGGAUCACCCAUGUAUUUCGUCCCAGGUAGGUCGCGGACAGUGUA [ArgiB-ms2@36]”, the “apparent KD of MS2 coat protein” value was found to be 19 nM (input ligand: arginine 13.2 mM); 20.7 nM (input ligand: none); 32.2 nM under setting [1]; 25.1 nM under setting [2]; 21.7 nM under setting [3].

Consider “GGGACACCGAGAAGGAGCGCAUCCAAACCACACAUGAGGAUCACCCAUGUAUAAAUAUGCAUGCAGGUAGGUCGCUCGGCGUCUC [Orordionbi]”, for which the “apparent KD of MS2 coat protein” value by setting is: (input ligand: arginine 13.2 mM) 76.5 nM; (input ligand: none) 120 nM; under setting [1], 112 nM; under setting [2], 134 nM; under setting [3], 111 nM.

Consider “UCGGGCAGAGCGGCCGCCACUGUUUGGCGUGCGGAUGACGGAACAUGAGGAUCACCCAUGUUGUUUAGGACCGGGCUUGCGGCGU [ipimullin]”, for which the “apparent KD of MS2 coat protein” value runs as follows: (input ligand: arginine 13.2 mM) 12.1 nM; (input ligand: none) 12.7 nM; under setting [1], 16.7 nM; under setting [2], 14 nM; under setting [3], 12.1 nM.

For “CUAUUCUGUACGGCCGCCACUUCAACGUGUAAGCUGGUGGUCCACUACAUGAGGAUCACCCAUGUAAGGACCGGGUACGGCGCGG [theeternabot_exclusion_MS2_Trp_B_29]”, the “apparent KD of MS2 coat protein” value runs as follows: (input ligand: arginine 13.2 mM) 12 nM; (input ligand: none) 12.5 nM; under setting [1], 16.6 nM; under setting [2], 69.4 nM; under setting [3], 40 nM.

“UGUAUGGACUGAAGGAGCGCCUCAAAAUAACUUGAGGAUCACCCAGGUAAGGCGAAAGCCGGGCAGGUAGGUCGCAGUCCAUACU [ArgBX 3]”: the “apparent KD of MS2 coat protein” value (input ligand: arginine 13.2 mM) stood at 31.2 nM; the “apparent KD of MS2 coat protein” value (input ligand: none) came out at 37 nM; the “apparent KD of MS2 coat protein” value under setting [1] was 43.1 nM; the “apparent KD of MS2 coat protein” value under setting [2] is 72.3 nM; the “apparent KD of MS2 coat protein” value under setting [3] stood at 49.9 nM.

With “UUAACGAGCUGAAGGAGCGCUCUUCAUCAACAUGAGGAUCACCCAUGUACACAUAAUAGGGAGCAGGUAGGUCGCAGCGGGAUGG [#24 Same State - Arginine B]”, the “apparent KD of MS2 coat protein” value by setting is: (input ligand: arginine 13.2 mM) 14.2 nM; (input ligand: none) 16.2 nM; under setting [1], 24.8 nM; under setting [2], 17.4 nM; under setting [3], 17.2 nM.

Turning to “AUAUAUACAUGAGGAUCACCCAUGUUAUUUCGAGGACCGGUACGGCCGCCACUCGAUAGAGUAGAAGUAUUUUGGGAUAGUUGAU [JR_SSTryptoA_Sub015]”, the “apparent KD of MS2 coat protein” value came out at 19.7 nM (input ligand: arginine 13.2 mM); 18.5 nM (input ligand: none); 30.7 nM under setting [1]; 23.6 nM under setting [2]; 15.6 nM under setting [3].

For “UACAUAUGCCGAAGGAGCGCGAGAUGCAAAGCAUCAAUCCUUACAUGAGGAUCACCCAUGUCGCAGGUAGGUCGCGGCAUAUGUU [ArgBX 2]”, the “apparent KD of MS2 coat protein” value by setting is: (input ligand: arginine 13.2 mM) 26.8 nM; (input ligand: none) 33.6 nM; under setting [1], 44.3 nM; under setting [2], 44.7 nM; under setting [3], 36.1 nM.
